# According to patent US20260234241A1:
# Where two headings read alike, the source gives them in different places.
# What was measured:
# [1] = target: human CD3 (on Jurkat cells and human PBMCs) (human) (UniProt P07766); assay: FACS on Jurkat cells
# [2] = target: human CD3 (on Jurkat cells and human PBMCs) (human) (UniProt P07766); assay: FACS on human PBMCs
# [3] = target: human BCMA (on cells) (human) (UniProt Q02223); assay: FACS on human BCMA-CHOK1 cells
# [4] = target: RPMI8226 tumor cells expressing the dual targets BCMA and GPRC5D; assay: FACS on RPMI8226 cells (express BCMA and GPRC5D)
# [5] = target: NCI-H929 tumor cells expressing the dual targets BCMA and GPRC5D; assay: FACS on NCI-H929 cells (express BCMA and GPRC5D)
# [6] = target: human GPRC5D (human) (UniProt Q9NZD1); assay: FACS on human GPRC5D-CHOK1 cells
# human GPRC5D (human), sequence (Q9NZD1 whole entry): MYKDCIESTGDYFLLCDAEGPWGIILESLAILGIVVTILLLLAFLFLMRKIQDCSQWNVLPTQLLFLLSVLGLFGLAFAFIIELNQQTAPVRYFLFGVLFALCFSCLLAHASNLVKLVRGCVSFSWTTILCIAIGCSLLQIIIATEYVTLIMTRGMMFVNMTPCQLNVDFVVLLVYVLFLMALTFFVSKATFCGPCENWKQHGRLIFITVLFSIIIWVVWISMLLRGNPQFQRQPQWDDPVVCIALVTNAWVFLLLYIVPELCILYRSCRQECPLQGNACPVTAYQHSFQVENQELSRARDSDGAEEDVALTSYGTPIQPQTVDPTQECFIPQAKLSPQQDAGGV
# [7] = target: cynomolgus monkey CD3 (on cyno PBMCs) (cynomolgus monkey) (UniProt Q95LI5); assay: FACS on cyno PBMCs
# cynomolgus monkey CD3 (on cyno PBMCs) (cynomolgus monkey), sequence (Q95LI5 22-198): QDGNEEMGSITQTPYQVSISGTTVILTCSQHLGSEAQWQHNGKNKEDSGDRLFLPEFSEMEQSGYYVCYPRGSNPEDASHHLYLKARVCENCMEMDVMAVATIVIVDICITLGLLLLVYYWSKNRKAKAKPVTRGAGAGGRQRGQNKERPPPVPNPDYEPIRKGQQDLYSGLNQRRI
# [8] = target: cynomolgus monkey BCMA (on cells) (cynomolgus monkey); assay: FACS on cynomolgus BCMA-CHOK1 cells
# cynomolgus monkey BCMA (on cells) (cynomolgus monkey), sequence (Q02223 other isoform, or with tags, fused parts or gaps): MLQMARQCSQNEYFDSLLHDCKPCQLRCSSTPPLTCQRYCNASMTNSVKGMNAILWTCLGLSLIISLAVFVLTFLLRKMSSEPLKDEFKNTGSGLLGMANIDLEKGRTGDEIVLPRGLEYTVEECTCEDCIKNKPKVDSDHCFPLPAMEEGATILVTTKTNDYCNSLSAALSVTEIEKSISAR
# [9] = target: cynomolgus monkey BCMA (on cells) (cynomolgus monkey); assay: FACS on cynomolgus BCMA-CHOK1 cells; remark: listed apart in the source
# [10] = target: cynomolgus monkey GPRC5D (cynomolgus monkey); assay: FACS on cynomolgus GPRC5D-CHOK1 cells
# cynomolgus monkey GPRC5D (cynomolgus monkey), sequence (Q9NZD1 other isoform, or with tags, fused parts or gaps): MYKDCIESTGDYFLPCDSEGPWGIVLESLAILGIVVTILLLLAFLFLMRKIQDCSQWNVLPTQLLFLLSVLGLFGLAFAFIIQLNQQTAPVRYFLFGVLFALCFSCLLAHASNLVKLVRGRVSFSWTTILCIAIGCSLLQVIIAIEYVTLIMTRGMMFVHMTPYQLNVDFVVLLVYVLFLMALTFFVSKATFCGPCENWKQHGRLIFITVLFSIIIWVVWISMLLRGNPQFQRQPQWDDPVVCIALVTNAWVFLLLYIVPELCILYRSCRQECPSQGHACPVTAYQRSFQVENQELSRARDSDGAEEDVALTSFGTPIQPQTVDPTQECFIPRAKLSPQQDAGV
# [11] = target: cynomolgus monkey GPRC5D (cynomolgus monkey); assay: FACS on cynomolgus GPRC5D-CHOK1 cells; remark: listed apart in the source
# [12] = target: human BCMA (on cells) (human) (UniProt Q02223); assay: FACS on human BCMA-CHOK1 cells; remark: listed apart in the source
# [13] = target: human GPRC5D (human) (UniProt Q9NZD1); assay: FACS on NCI-H929 cells (GPRC5D-expressing)
# [14] = target: human BCMA (on cells) (human) (UniProt Q02223); assay: FACS on RPMI8226 cells (express BCMA and GPRC5D)
# [15] = target: soluble BCMA; assay: cell-based or functional assay
# [16] = target: human BCMA (on cells) (human) (UniProt Q02223); assay: FACS on NCI-H929 cells (express BCMA and GPRC5D)
# human BCMA (on cells) (human), sequence (Q02223 whole entry): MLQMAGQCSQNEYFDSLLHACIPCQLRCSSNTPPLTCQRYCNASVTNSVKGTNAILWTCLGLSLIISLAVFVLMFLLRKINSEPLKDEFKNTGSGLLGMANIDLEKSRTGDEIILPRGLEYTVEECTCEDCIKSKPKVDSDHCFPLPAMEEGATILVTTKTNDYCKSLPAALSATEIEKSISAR
# human CD3 (on Jurkat cells and human PBMCs) (human), sequence (P07766 23-207): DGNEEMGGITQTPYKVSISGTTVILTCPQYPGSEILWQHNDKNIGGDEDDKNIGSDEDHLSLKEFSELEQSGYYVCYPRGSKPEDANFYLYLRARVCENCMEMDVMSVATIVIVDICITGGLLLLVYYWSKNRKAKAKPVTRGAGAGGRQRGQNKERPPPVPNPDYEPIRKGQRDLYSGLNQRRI
Substance,Top MFI [1],Top MFI [2],Top MFI [3],Top MFI [4],Top MFI [5],Top MFI [6],Top MFI [7],Top MFI [8],Top MFI [9],Top MFI [10],Top MFI [11],Top MFI [12],Top MFI [13],Top MFI [14],Fold change of TDCC EC50 on NCI-H929 cells in the presence of 2500 ng/ml soluble BCMA [15],"Ratio (EC50) of TDCC on NCI-H929 cells, 2.5 ug/ml against 0 ug/ml soluble BCMA [15]",fold change of the TDCC EC50 on NCI-H929 cells in the presence of 2500 ng/ml soluble BCMA [15],Top MFI [16]
hIgG1 LALA isotype (antibody),77.6,96.1,119,112,104,100,93.3,,,,,,,,,,,
IgG1 AA (antibody),,,89.1,,,36,,82.6,382,1840,85,232,178,,,,,
Teclistamab analogue (BCMA/CD3) (bispecific antibody),825,672,2280,,,160,2060,1770,,,,,,169,25 fold,21 fold,25 fold,669
